Experimental findings from PMC3839849 (2013) are described below.

In general, Kd refers to the equilibrium constant for the complex coming apart. A lower Kd goes with tighter binding.

The target of this assay is CaV1.2 IQ domain (Homo sapiens, UniProt Q13936, Ca2+). The experiment in a line: ITC. A general note: ITC needs no label: the signal is the heat of the interaction.
CaV1.2 IQ domain, sequence (Q13936 1665-1685): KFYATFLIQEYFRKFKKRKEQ

B1: CaBP1 C-lobe (protein)
chain: ADMIGVKELRDAFREFDTNGDGEISTSELREAMRKLLGHQVGHRDIEEIIRDVDLNGDGRVDFEEFVRMMSR
In turn, B1 gave a Kd of 10.5 nM.
